Assay results taken from IntAct's records for PubMed 12713445.

Columns and labels:
dlg3_human DLG3 = dlg3_human DLG3 (UniProt Q92796)
dlg2_human DLG2 = dlg2_human DLG2 (UniProt Q15700)
Sequence of UniProt Q15700 (Q15700 whole entry, looked up): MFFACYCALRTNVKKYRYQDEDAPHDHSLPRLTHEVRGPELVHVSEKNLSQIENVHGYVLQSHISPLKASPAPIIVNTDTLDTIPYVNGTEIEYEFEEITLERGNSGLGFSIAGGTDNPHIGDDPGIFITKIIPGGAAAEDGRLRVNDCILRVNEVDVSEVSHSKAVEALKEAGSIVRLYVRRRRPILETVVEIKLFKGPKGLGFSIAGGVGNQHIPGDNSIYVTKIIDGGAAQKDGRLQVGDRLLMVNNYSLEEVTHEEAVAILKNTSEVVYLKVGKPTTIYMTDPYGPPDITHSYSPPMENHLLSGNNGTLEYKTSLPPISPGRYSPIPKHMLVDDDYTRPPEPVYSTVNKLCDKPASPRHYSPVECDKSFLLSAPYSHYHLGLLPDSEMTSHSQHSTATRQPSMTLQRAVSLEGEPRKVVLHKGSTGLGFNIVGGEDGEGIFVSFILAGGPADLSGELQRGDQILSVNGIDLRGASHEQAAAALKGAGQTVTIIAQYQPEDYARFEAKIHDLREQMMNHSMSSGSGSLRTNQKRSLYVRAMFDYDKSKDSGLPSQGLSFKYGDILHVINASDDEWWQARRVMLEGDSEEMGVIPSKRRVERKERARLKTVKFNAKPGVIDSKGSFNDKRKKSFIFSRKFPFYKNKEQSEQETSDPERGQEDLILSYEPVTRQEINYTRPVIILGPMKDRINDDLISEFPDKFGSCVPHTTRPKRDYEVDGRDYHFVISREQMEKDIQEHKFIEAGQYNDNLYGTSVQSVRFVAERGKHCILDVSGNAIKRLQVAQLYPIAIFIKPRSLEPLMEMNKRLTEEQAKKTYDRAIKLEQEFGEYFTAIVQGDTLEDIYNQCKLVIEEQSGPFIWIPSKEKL

Sequence of UniProt Q92796 (Q92796 whole entry): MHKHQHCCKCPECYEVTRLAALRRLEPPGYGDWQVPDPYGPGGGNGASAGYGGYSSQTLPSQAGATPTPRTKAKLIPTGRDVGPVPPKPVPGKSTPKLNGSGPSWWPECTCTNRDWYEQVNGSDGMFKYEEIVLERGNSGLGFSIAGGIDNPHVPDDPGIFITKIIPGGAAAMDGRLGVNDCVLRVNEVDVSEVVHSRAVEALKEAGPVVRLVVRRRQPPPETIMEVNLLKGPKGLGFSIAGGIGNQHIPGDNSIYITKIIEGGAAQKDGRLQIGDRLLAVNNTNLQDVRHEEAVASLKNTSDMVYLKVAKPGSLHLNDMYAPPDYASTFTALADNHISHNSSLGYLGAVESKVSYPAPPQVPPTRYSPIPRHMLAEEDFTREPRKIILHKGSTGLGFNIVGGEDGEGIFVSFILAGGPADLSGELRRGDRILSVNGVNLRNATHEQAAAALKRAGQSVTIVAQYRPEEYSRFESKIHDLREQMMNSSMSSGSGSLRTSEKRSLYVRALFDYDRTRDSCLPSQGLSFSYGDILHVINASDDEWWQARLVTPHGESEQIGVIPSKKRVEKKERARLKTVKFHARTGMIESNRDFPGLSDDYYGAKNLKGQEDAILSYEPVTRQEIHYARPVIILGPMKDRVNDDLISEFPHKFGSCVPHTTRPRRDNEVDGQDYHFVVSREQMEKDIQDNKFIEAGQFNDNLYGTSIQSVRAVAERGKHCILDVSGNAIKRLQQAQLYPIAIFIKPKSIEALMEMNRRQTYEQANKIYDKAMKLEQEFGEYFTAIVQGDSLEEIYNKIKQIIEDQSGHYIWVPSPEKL

Question: Which results are given for “Low-density lipoprotein receptor-related protein 2 (Homo sapiens), P98164 S4653V;V4655S”?
Answer: effect of a mutation on the interaction (dlg3_human DLG3): disrupting interaction strength; effect of a mutation on the interaction (dlg2_human DLG2): disrupting interaction strength
